Legend:
Experiment in all cases: quantitative Coomassie blue staining of the co-purified complex; KIF5-mScarlet-StrepII and His-FLAG-KLC1 co-expressed in Sf9, purified on Streptactin XT and by SEC
Settings in all cases: partners not purified
[1] = molecular target: T1, full-length human KIF5C-mScarlet-StrepII (human, UniProt O60282 1-957)
T1 construct: kinesin heavy chain KIF5C, human, cDNA BC110287, full length; 2x Prescission protease sites lie between KIF5C and mScarlet; also called KHC; source: Sf9 (baculovirus), purified (Streptactin XT, SEC); also co-expressed with KLC1 and co-purified; not shown: mScarlet, C-terminal, kept
T1 sequence (looked up): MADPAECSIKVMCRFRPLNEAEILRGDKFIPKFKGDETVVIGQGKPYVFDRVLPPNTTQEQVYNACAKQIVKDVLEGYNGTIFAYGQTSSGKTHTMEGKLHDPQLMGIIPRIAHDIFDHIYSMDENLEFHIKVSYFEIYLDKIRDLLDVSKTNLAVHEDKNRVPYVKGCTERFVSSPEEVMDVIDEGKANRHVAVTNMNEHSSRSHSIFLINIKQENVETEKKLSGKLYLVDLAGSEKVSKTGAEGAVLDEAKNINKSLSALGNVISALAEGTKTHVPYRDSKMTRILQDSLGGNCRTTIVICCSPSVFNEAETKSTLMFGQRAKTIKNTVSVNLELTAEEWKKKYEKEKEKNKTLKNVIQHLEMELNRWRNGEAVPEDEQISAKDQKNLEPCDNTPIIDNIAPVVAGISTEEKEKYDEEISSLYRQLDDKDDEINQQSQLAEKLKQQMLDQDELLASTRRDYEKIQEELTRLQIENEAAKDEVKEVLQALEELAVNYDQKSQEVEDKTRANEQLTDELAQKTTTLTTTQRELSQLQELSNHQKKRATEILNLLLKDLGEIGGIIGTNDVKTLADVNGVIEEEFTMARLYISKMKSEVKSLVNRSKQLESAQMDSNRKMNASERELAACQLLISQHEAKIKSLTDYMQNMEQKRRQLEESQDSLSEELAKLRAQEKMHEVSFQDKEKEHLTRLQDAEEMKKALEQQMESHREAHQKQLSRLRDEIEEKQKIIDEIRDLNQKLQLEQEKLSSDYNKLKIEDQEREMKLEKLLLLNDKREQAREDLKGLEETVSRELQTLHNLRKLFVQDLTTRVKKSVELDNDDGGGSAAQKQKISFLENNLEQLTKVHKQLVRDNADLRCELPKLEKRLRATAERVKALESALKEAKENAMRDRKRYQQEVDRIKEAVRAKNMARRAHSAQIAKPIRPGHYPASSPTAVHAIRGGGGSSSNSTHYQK

[2] = molecular target: T2, full-length human KIF5B-mScarlet-StrepII (human, UniProt P33176 1-963)
T2 construct: kinesin heavy chain KIF5B, human, cDNA BC126281, full length (aa 1-963); 2x Prescission protease sites lie between KIF5B and mScarlet; also called KIF5B-WT; wild-type KIF5B; source: Sf9 (baculovirus), purified (Streptactin XT, SEC); also co-expressed with KLC1 and co-purified; not shown: mScarlet, C-terminal, kept
T2 sequence (looked up): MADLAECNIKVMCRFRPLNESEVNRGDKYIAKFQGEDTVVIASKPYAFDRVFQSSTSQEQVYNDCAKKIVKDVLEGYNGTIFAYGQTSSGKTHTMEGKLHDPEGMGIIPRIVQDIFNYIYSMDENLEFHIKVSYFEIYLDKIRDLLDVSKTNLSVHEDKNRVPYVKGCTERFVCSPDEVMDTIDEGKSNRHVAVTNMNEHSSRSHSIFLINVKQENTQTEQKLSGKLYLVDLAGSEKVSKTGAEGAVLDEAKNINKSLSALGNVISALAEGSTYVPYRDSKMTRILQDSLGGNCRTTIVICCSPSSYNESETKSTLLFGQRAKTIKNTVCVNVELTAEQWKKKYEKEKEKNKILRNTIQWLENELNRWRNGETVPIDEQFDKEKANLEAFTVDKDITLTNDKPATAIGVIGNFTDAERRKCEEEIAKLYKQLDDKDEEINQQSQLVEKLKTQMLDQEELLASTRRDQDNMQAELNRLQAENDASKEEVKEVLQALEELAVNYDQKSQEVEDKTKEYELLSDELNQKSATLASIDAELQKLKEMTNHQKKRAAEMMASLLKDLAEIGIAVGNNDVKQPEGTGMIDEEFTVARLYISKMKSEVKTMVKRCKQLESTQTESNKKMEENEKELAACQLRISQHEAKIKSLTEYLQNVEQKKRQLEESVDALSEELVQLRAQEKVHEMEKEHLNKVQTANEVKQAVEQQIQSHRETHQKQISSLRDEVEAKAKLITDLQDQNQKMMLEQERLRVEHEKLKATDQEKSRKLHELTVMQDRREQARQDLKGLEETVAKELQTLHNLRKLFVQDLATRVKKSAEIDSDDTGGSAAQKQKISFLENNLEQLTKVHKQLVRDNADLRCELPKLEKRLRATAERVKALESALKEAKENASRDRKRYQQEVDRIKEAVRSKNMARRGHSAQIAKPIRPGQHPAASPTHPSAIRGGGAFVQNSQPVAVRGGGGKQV

[3] = molecular target: T3, full-length human KIF5A-mScarlet-StrepII (human, UniProt Q12840 1-1032)
T3 construct: kinesin heavy chain KIF5A, human, cDNA BC146670, full length; 2x Prescission protease sites lie between KIF5A and mScarlet; also called KIF5A dimer; KHC; source: Sf9 (baculovirus), purified (Streptactin XT, SEC); also co-expressed with KLC1 and co-purified; not shown: mScarlet, C-terminal, kept
T3 sequence (looked up): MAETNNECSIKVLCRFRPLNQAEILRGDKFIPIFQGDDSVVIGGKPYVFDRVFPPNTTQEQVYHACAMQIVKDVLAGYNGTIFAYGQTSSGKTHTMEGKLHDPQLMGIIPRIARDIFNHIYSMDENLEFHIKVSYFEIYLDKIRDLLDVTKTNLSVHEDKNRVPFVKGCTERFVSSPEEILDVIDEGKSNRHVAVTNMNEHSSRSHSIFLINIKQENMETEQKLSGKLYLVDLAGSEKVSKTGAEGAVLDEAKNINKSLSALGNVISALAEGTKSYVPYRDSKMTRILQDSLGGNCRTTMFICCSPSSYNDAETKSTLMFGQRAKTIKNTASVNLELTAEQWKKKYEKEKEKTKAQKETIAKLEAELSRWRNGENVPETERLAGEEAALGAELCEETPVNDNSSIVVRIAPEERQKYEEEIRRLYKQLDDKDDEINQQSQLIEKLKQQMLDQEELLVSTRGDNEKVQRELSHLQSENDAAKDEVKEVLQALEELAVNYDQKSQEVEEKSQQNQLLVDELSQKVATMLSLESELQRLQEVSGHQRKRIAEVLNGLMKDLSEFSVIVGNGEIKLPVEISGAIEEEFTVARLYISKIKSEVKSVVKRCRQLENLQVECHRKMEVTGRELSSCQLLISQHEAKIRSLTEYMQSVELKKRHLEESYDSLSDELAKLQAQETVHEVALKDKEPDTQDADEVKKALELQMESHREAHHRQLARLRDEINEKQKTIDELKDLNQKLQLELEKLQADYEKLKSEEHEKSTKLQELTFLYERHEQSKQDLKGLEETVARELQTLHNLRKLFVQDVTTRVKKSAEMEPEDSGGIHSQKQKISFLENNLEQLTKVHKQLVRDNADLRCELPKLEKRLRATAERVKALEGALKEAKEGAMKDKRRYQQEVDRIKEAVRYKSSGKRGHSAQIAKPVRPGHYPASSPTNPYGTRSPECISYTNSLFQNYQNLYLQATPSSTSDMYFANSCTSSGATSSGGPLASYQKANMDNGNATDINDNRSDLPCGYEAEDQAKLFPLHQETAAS

Measured: stoichiometry N

B1: 6xHis-FLAG-human KLC1 (co-expressed with KIF5) (natural protein, UniProt Q07866 1-573, looked up)
chain: MYDNMSTMVYIKEDKLEKLTQDEIISKTKQVIQGLEALKNEHNSILQSLLETLKCLKKDDESNLVEEKSNMIRKSLEMLELGLSEAQVMMALSNHLNAVESEKQKLRAQVRRLCQENQWLRDELANTQQKLQKSEQSVAQLEEEKKHLEFMNQLKKYDDDISPSEDKDTDSTKEPLDDLFPNDEDDPGQGIQQQHSSAAAAAQQGGYEIPARLRTLHNLVIQYASQGRYEVAVPLCKQALEDLEKTSGHDHPDVATMLNILALVYRDQNKYKDAANLLNDALAIREKTLGKDHPAVAATLNNLAVLYGKRGKYKEAEPLCKRALEIREKVLGKDHPDVAKQLNNLALLCQNQGKYEEVEYYYQRALEIYQTKLGPDDPNVAKTKNNLASCYLKQGKFKQAETLYKEILTRAHEREFGSVDDENKPIWMHAEEREECKGKQKDGTSFGEYGGWYKACKVDSPTVTTTLKNLGALYRRQGKFEAAETLEEAAMRSRKQGLDNVHKQRVAEVLNDPENMEKRRSRESLNVDVVKYESGPDGGEEVSMSVEWNGGVSGRASFCGKRQQQQWPGRRHR
notes: kinesin light chain 1, human, cDNA BC008881; also called kinesin light chain; source: Sf9, co-expressed with KIF5 from a multi-gene baculovirus, co-purified (Streptactin XT, SEC)
~0.8 KLC1 per KHC: all assays above
